# Test results published in IntAct's records for PubMed 18075593.
# Molecular target: cry1_mouse Cry1 (UniProt P97784)
# Sequence (P97784 whole entry): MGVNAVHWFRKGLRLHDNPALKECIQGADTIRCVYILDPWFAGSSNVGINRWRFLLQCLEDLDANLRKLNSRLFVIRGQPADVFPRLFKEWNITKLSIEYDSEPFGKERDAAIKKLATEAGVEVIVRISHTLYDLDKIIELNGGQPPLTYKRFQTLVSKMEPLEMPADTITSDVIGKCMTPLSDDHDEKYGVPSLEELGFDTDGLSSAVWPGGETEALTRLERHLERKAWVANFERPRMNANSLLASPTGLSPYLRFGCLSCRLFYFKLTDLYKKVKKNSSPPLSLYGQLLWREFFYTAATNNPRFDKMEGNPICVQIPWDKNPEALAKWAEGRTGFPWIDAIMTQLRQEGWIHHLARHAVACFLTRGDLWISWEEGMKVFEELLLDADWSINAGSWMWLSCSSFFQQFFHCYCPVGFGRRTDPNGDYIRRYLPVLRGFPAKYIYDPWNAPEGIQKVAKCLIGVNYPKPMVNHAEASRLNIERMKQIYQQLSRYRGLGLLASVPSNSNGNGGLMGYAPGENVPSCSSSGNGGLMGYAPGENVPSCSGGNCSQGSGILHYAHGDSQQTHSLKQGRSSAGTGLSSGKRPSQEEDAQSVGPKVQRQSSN
# Sequence of Basic helix-loop-helix ARNT-like protein 1 (Mus musculus), Q9WTL8-2 K537R (Q9WTL8 other isoform, or with tags, fused parts or gaps K537R): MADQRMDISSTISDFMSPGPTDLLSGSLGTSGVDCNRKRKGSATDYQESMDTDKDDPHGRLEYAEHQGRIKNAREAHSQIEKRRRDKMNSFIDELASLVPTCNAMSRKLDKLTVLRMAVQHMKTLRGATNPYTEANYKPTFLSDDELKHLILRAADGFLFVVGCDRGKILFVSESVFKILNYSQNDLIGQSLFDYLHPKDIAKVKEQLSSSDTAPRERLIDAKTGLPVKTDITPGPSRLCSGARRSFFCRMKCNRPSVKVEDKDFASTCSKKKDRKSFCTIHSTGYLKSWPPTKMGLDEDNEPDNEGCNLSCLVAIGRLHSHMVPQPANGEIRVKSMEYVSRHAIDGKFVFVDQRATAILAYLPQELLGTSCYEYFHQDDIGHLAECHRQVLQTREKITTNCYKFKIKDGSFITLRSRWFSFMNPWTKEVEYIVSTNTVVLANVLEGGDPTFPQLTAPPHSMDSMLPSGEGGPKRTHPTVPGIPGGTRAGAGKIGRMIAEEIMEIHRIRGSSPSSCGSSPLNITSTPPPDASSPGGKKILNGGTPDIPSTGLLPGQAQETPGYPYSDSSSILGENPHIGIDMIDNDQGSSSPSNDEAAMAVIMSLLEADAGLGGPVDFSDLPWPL
substance,measurement,value
"Basic helix-loop-helix ARNT-like protein 1 (Mus musculus), Q9WTL8-2 K537R",effect of a mutation on the interaction,decreasing interaction strength
